In the supplement of paper PMC10126150:
± gives the standard deviation of the averaged measurements.

System: ATP
Assay: switch fluorescence ratio, 500 uM ATP over buffer (Cy3 cluster intensity, sum of 5 cycles each) (fold (ratio)); higher = stronger signal-on switching upon ATP binding; sequences stand for … in TCGTCGGCAGCGTCAGATGTGTATAAGAGACAGTTTTTTTTTTTTTTTTTTTTTTTTT…TC
Details: aptamer strand: ATP DNA aptamer (quencher-CACCTGGGGGAGTATTGCGGAGGAAGG + anchor), 100 nM annealed; ATP concentration: 500 uM
Outline: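 The fluorescence ratio divides summed target-cycle Cy3 intensity by summed buffer-cycle Cy3 intensity for each cluster and is averaged per switch-domain sequence. Cy3-labelled switching-strand clusters on a modified Illumina MiSeq flow-cell were annealed to 100 nM quencher-labelled ATP aptamer, then imaged in selection buffer and again after 15 min with 500 uM ATP at 22 °C. Five such cycles were run, with NaOH stripping and re-annealing between them, and clusters outside 100-1000 RFU were excluded.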
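Further: ATP exposure 15 min at 22 °C before imaging.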

Sequence	switch fluorescence ratio
TTTAAGGTTT	0.998 ± 0.013
TTTAAGTCGT	0.974 ± 0.025
TTTAAGTGGG	1.04 ± 0.14
TTTAAGTTGG	0.983 ± 0.013
TTTAATGAGC	0.995 ± 0.014
TTTAATGCG	1.01 ± 0.025
TTTAATGGGG	1.02 ± 0.035
TTTAATGTGG	0.999 ± 0.03
TTTAATTAT	0.99 ± 0.034
TTTAATTCGC	1.1 ± 0.056
TTTAATTTA	1.01 ± 0.012
TTTACAGATT	0.982 ± 0.023
TTTACAGCAT	1.06 ± 0.14
TTTACAGTC	1.01 ± 0.037
TTTACAGTGG	1.05 ± 0.057
TTTACATTAT	0.981 ± 0.058
TTTACATTGG	1.01 ± 0.044
TTTACCATTT	1.024 ± 0.0018
TTTACGAAAT	1.08 ± 0.12
TTTACGAGGG	0.977 ± 0.015
TTTACGATTA	1.14 ± 0.067
TTTACGGTGC	1.25 ± 0.15
TTTACGTAGG	1 ± 0.024
TTTACGTCCA	1.1 ± 0.047
TTTACGTGGA	1.02 ± 0.028
TTTACTATTG	1.03 ± 0.03

Sequence	switch fluorescence ratio
TTTACTCGGC	1.08 ± 0.16
TTTACTGGGG	1.01 ± 0.023
TTTACTTAGC	1.04 ± 0.026
TTTACTTCTA	1.05 ± 0.017
TTTAGAAAGT	1.028 ± 0.0052
TTTAGAACTC	1.19 ± 0.3
TTTAGAAGGT	0.995 ± 0.026
TTTAGAGAGT	1.01 ± 0.018
TTTAGAGGGA	1.02 ± 0.019
TTTAGAGGGT	0.988 ± 0.013
TTTAGATCAG	1.03 ± 0.013
TTTAGATCGG	1.01 ± 0.046
TTTAGATGAG	0.986 ± 0.053
TTTAGATGGA	0.975 ± 0.021
TTTAGATTGG	0.9945 ± 0.0086
TTTAGCAATG	1.64 ± 0.34
TTTAGCAGAG	1.16 ± 0.28
TTTAGCCTTT	1.06 ± 0.11
TTTAGCTGT	1.1 ± 0.17
TTTAGGCCTC	1.01 ± 0.014
TTTAGGCGGC	1.03 ± 0.023
TTTAGGCGGG	1.05 ± 0.044
TTTAGGGA	0.973 ± 0.033
TTTAGGGATG	0.989 ± 0.0088
TTTAGGGGAA	1.02 ± 0.003
TTTAGGTAGA	1.02 ± 0.014

Sequence	switch fluorescence ratio
TTTAGGTATT	0.9598 ± 0.0042
TTTAGGTTCG	0.972 ± 0.028
TTTAGGTTGA	0.9957 ± 0.0012
TTTAGTCGTA	1.01 ± 0.021
TTTAGTGAGG	0.974 ± 0.03
TTTAGTTTGC	0.992 ± 0.024
TTTATAAAAC	1.01 ± 0.051
TTTATAACAG	0.982 ± 0.021
TTTATAACGG	0.988 ± 0.038
TTTATAAGGA	0.997 ± 0.037
TTTATAAGGC	0.983 ± 0.061
TTTATAATAG	0.991 ± 0.025
TTTATAATAT	1.03 ± 0.015
TTTATACCGT	1.026 ± 0.0028
TTTATACTGT	1.03 ± 0.024
TTTATAGGTT	1.02 ± 0.069
TTTATATGTA	1.01 ± 0.022
TTTATCAAAA	0.993 ± 0.012
TTTATCATAA	0.958 ± 0.017
TTTATCCGGT	1.01 ± 0.042
TTTATCCGTC	0.96 ± 0.033
TTTATCGGG	1.01 ± 0.044
TTTATCGGGC	0.989 ± 0.019
TTTATCTGCT	0.981 ± 0.037
TTTATCTTTT	1 ± 0.028
TTTATGAACT	1.02 ± 0.042

Sequence	switch fluorescence ratio
TTTATGAAGG	1 ± 0.018
TTTATGAGAG	1.08 ± 0.092
TTTATGAGTT	0.988 ± 0.029
TTTATGATGA	0.971 ± 0.016
TTTATGATGG	1.01 ± 0.052
TTTATGATTT	1 ± 0.024
TTTATGCCAG	0.946 ± 0.053
TTTATGCTCC	1.086 ± 0.0031
TTTATGGAAG	0.988 ± 0.013
TTTATGGACT	1.03 ± 0.039
TTTATGGCGG	1.01 ± 0.027
TTTATGGGTA	1 ± 0.033
TTTATGGTAA	0.9888 ± 0.0024
TTTATGGTAT	0.982 ± 0.028
TTTATGGTGT	1.17 ± 0.21
TTTATGGTTG	1.02 ± 0.064
TTTATGTGTG	0.999 ± 0.026
TTTATTAAAA	0.99 ± 0.038
TTTATTAAGT	1.01 ± 0.033
TTTATTACCC	1.02 ± 0.025
TTTATTAGAT	0.982 ± 0.022
TTTATTCTCT	1.01 ± 0.019
TTTATTGA	0.989 ± 0.013
TTTATTGCGT	1.01 ± 0.048
TTTATTGGT	1.01 ± 0.018
TTTATTGGTG	1.03 ± 0.1

Sequence	switch fluorescence ratio
TTTATTGTTA	1.05 ± 0.068
TTTATTGTTT	1 ± 0.011
TTTATTTACG	1.033 ± 0.0082
TTTATTTCTG	0.959 ± 0.02
TTTATTTCTT	0.98163 ± 0.0001
TTTATTTGAC	1.03 ± 0.053
TTTCAAAATT	0.994 ± 0.018
TTTCAACCTT	1.42 ± 0.071
TTTCAACGAT	1 ± 0.029
TTTCAAGGGC	1.04 ± 0.027
TTTCAAGTGC	1.03 ± 0.064
TTTCAATCTT	1.36 ± 0.62
TTTCAATGTC	0.97 ± 0.11
TTTCACAATC	1.07 ± 0.076
TTTCACAGTA	1.03 ± 0.03
TTTCACATGG	1.052 ± 0.0044
TTTCACTTGT	1.034 ± 0.0018
TTTCAGGCTT	1.14 ± 0.13
TTTCAGGGGG	1.05 ± 0.091
TTTCAGGGTC	1.15 ± 0.19
TTTCAGTACA	0.988 ± 0.01
TTTCAGTCGC	0.9995 ± 0.0047
TTTCAGTTGT	1.01 ± 0.016
TTTCATAGTC	1 ± 0.025
TTTCATCGTA	0.99 ± 0.049
TTTCATGGGG	1.014 ± 0.0049

Sequence	switch fluorescence ratio
TTTCATGTAT	1.01 ± 0.012
TTTCATGTCT	0.992 ± 0.019
TTTCATGTGG	0.995 ± 0.044
TTTCATTTTT	0.999 ± 0.035
TTTCCACCGA	1.14 ± 0.16
TTTCCATCAC	1 ± 0.042
TTTCCATTCT	1 ± 0.015
TTTCCCGGAT	1.1 ± 0.14
TTTCCCGGTG	2.13 ± 0.039
TTTCCCGTAT	1.07 ± 0.049
TTTCCGAATG	1.13 ± 0.026
TTTCCGGGGG	0.996 ± 0.022
TTTCCGTTTC	1.06 ± 0.04
TTTCCTGGGC	1.37 ± 0.61
TTTCCTTTGA	1.06 ± 0.07
TTTCGAAACT	1 ± 0.038
TTTCGAACGG	1.03 ± 0.028
TTTCGAATAA	0.986 ± 0.0099
TTTCGACTTT	1 ± 0.038
TTTCGAGGAA	1.03 ± 0.019
TTTCGAGTTT	0.983 ± 0.012
TTTCGATATT	0.989 ± 0.019
TTTCGATTGT	0.988 ± 0.024
